Results taken from patent US20040146964.

T1: synthetic polypeptide of HIF-1α residues 556-574, unmodified
T1 chain: DLDLEMLAPYIPMDDDFQL

T2: C. elegans HIF-α homologue, wild type
T2 chain: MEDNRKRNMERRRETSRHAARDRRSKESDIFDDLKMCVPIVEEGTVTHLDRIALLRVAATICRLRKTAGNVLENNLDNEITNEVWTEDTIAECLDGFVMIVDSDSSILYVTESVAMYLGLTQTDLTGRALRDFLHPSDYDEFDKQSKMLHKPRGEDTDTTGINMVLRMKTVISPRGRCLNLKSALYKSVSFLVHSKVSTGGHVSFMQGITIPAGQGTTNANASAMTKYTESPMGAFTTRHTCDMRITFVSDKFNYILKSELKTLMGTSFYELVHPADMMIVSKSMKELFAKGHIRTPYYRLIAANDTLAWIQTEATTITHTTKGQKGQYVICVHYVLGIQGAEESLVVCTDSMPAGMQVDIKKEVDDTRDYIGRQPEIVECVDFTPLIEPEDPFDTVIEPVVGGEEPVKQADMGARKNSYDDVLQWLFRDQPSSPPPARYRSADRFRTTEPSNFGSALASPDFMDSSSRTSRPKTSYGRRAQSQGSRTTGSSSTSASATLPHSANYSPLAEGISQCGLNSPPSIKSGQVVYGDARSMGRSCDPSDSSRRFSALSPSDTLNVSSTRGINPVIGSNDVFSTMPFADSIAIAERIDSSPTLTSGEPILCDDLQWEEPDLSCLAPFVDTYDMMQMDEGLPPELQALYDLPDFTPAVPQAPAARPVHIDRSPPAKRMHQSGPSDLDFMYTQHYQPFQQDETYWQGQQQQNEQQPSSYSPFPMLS

B1: recombinant human type II prolyl 4-hydroxylase (protein)
chain 1: EFFTSIGHMTDLIYAEKELVQSLKEYILVEEAKLSKIKSWANKMEALTSKSAADAEGYLAHPVNAYKLVKRLNTDWPALEDLVLQDSAAGFIANLSVQRQFFPTDEDEIGAAKALMRLQDTYRLDPGTISRGELPGTKYQAMLSVDDCFGMGRSAYNEGDYYHTVLWMEQVLKQLDAGEEATTTKSQVLDYLSYAVFQLGDLHRALELTRRLLSLDPSHERAGGNLRYFEQLLEEEREKTLTNQTEAELATPEGIYERPVDYLPERDVYESLCRGEGVKLTPRRQKRLFCRYHHGNRAPQLLIAPFKEEDEWDSPHIVRYYDVMSDEEIERIKEIAKPKLARATVRDPKTGVLTVASYRVSKSSWLEEDDDPVVARVNRRMQHITGLTVKTAELLQVANYGVGGQYEPHFDFSRNDERDTFKHLGTGNRVATFLNYMSDVEAGGATVFPDLGAAIWPKKGTAVFWYNLLRSGEGDYRTRHAACPVLVGCKWVSNKWFHERGQEFLRPCGSTEVD
chain 2: not shown
B2: recombinant human type I prolyl 4-hydroxylase (protein)
chain 1: HPGFFTSIGQMTDLIHTEKDLVTSLKDYIKAEEDKLEQIKKWAEKLDRLTSTATKDPEGFVGHPVNAFKLMKRLNTEWSELENLVLKDMSDGFISNLTIQRQYFPNDEDQVGAAKALLRLQDTYNLDTDTISKGNLPGVKHKSFLTAEDCFELGKVAYTEADYYHTELWMEQALRQLDEGEISTIDKVSVLDYLSYAVYQQGDLDKALLLTKKLLELDPEHQRANGNLKYFEYIMAKEKDVNKSASDDQSDQKTTPKKKGVAVDYLPERQKYEMLCRGEGIKMTPRRQKKLFCRYHDGNRNPKFILAPAKQEDEWDKPRIIRFHDIISDAEIEIVKDLAKPRLRRATISNPITGDLETVHYRISKSAWLSGYENPVVSRINMRIQDLTGLDVSTAEELQVANYGVGGQYEPHFDFARKDEPDAFKELGTGNRIATWLFYMSDVSAGGATVFPEVGASVWPKKGTAVFWYNLFASGEGDYSTRHAACPVLVGNKWVSNKWLHERGQEFRRPCTLSELE
chain 2: not shown
B3: recombinant C. elegans PHY-1 (protein)
chain: DLFTSIADMQNLLETERNIPKILDKYIHDEEERLVQLKKLSEEYSKKNEISIENGLKDITNPINAFLLIKRKIFDWKEIESKMNANKAGNVVSSITDDSYGVRYPTADDLSGAAIGLLRLQDTYRLDTKDLADGKIYADQGNYTFSAKDCFEIARAAYNEHDFYHTVMWMEEAQRRLGDEVEPTVEVEDILEYLAFALYKQNNLKHALKLTEELYKMNPTHPRAKGNVKWYEDLLEQEGVRRSDMRKNLPPIQNRRPDSVLGNTERTMYEALCRNEVPVSQKDISRLYCYYKRDRPFLVYAPIKVEIKRFNPLAVLFKDVISDDEVAAIQELAKPKLARATVHDSVTGKLVTATYRISKSAWLKEWEGDVVETVNKRIGYMTNLEMETAEELQIANYGIGGHYDPHFDHAKKEESKSFESLGTGNRIATVLFYMSQPSHGGGTVFTEAKSTILPTKNDALFWYNLYKQGDGNPDTRHAACPVLVGIKWVSNKWIHEKGNEFRRPCGLKSSDYERFVGDLGYGPEPRNAPNVSPNLAKDVWETL
B4: recombinant C. elegans PHY-2 (protein)
chain: DLFTAIADLQHMLGAEKDVTTIIDQYIEAERARLDDLRRYAHEYVHRNAHAESVGPEFVTNPINAYLLIKRLTTEWKKVENIMLNNKASTFLKNITDNRVRSEVKFPGEEDLSGAATALLRLQDTYSLDTLDLSNGIIGGEKVSNKLSGHDTFEVGRSAYNQKDYYHCLMWMQVALVKIENENPPTIEEWEILEYLAYSLYQQGNVRRALSLTKRLAKIAPNHPRAKGNVKWYEDMLQGKDMVGDLPPIVNKRVEYDGIVERDAYEALCRGEIPPVEPKWKNKLRCYLKRDKPFLKLAPIKVEILRFDPLAVLFKNVIHDSEIEVIKELASPKLKRATVQNSKTGELEHATYRISKSAWLKGDLDPVIDRVNRRIEDFTNLNQATSEELQVANYGLGGHYDPHFDFARKEEKNAFKTLNTGNRIATVLFYMSQPERGGATVFNHLGTAVFPSKNDALFWYNLRRDGEGDLRTRHAACPVLLGVKWVSNKWIHEKGQEFTRPCGLEEEVQENFIGDLSPYANDP
B5: rat SM-20, full length (protein)
chain: MPLGHIMRLDLEKIALEYIVPCLHEVGFCYLDNFLGEVVGDCVLERVKQLHYNGALRDGQLAGPRAGVSKRHLRGDQITWIGGNEEGCEAINFLLSLIDRLVLYCGSRLGKYYVKERSKAMVACYPGNGTGYVRHVDNPNGDGRCITCIYYLNKNWDAKLHGGVLRIFPEGKSFVADVEPIFDRLLFSWSDRRNPHEVQPSYATRYAMTVWYFDAEERAEAKKKFRNLTRKTESALAKD
B6: human PHD3 (protein)
chain: MPLGHIMRLDLEKIALEYIVPCLHEVGFCYLDNFLGEVVGDCVLERVKQLHCTGALRDGQLAGPRAGVSKRHLRGDQITWIGGNEEGCEAISFLLSLIDRLVLYCGSRLGKYYVKERSKAMVACYPGNGTGYVRHVDNPNGDGRCITCIYYLNKNWDAKLHGGILRIFPEGKSFIADVEPIFDRLLFFWSDRRNPHEVQPSYATRYAMTVWYFDAEERAEAKKKFRNLTRKTESALTED
B7: human PHD2 (protein)
chain: MANDSGGPGGPSPSERDRQYCELCGKMENLLRCSRCRSSFYCCKEHQRQDWKKHKLVCQGSEGALGHGVGPHQHSGPAPPAAVPPPRAGAREPRKAAARRDNASGDAAKGKVKAKPPADPAAAASPCRAAAGGQGSAVAAEAEPGKEEPPARSSLFQEKANLYPPSNTPGDALSPGGGLRPNGQTKPLPALKLALEYIVPCMNKHGICVVDDFLGKETGQQIGDEVRALHDTGKFTDGQLVSQKSDSSKDIRGDKITWIEGKEPGCETIGLLMSSMDDLIRHCNGKLGSYKINGRTKAMVACYPGNGTGYVRHVDNPNGDGRCVTCIYYLNKDWDAKVSGGILRIFPEGKAQFADIEPKFDRLLFFWSDRRNPHEVQPAYATRYAITVWYFDADERARAKVKYLTGEKGVRVELNKPSDSVGKDVF

Legend:
[1] = target: T1, synthetic polypeptide of HIF-1α …
[2] = target: T2, C. elegans HIF-α homologue, wild type
[3] = target: human HIF-1α, full length wild type
[4] = target: full length HIF-1α double mutant P402A+P564G
full length HIF-1α double mutant P402A+P564G, sequence (chain, as listed by the source P402A P564G): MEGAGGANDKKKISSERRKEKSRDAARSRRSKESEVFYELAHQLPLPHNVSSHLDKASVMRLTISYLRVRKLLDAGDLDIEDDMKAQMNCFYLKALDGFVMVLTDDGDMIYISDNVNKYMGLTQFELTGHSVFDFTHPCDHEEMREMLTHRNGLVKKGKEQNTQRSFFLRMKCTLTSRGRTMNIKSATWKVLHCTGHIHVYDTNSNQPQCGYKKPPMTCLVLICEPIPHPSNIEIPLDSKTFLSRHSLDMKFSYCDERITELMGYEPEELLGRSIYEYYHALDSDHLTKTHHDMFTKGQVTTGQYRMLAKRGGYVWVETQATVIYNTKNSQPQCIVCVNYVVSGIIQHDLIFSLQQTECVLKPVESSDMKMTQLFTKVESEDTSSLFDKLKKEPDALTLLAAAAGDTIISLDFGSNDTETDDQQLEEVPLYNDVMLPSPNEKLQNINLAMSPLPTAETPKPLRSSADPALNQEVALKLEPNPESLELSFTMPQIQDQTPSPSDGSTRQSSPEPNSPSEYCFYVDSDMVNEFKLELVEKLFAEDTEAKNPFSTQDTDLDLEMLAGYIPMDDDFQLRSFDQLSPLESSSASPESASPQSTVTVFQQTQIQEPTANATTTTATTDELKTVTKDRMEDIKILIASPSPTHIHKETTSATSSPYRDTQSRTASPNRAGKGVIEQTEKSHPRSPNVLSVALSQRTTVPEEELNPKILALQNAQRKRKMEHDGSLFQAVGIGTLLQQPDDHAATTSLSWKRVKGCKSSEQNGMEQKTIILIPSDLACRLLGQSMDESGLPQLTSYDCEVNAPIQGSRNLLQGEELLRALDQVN

full length HIF-1α P402A, sequence (chain, as listed by the source P402A): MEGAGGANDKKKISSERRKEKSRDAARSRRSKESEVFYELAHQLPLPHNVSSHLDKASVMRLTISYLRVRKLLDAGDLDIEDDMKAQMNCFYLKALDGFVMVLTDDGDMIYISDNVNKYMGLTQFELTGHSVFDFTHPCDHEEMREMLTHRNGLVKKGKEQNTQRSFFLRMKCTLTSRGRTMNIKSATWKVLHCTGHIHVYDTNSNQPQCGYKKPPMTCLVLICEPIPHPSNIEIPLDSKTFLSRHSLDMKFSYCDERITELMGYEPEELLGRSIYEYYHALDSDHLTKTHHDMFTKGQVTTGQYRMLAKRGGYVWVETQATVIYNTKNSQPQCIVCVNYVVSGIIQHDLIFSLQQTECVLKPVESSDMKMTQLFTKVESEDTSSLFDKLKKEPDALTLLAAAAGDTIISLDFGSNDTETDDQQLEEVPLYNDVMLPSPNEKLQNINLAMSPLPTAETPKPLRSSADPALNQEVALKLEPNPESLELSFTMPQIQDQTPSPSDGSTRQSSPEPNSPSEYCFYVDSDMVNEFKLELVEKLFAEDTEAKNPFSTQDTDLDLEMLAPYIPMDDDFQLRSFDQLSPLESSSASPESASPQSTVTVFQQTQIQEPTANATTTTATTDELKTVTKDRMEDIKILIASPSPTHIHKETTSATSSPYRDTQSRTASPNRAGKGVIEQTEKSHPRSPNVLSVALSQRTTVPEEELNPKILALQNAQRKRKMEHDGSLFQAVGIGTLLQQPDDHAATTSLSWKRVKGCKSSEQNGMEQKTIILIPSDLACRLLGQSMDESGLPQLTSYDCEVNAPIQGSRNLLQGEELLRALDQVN
full length HIF-1α P564G, sequence (chain, as listed by the source P564G): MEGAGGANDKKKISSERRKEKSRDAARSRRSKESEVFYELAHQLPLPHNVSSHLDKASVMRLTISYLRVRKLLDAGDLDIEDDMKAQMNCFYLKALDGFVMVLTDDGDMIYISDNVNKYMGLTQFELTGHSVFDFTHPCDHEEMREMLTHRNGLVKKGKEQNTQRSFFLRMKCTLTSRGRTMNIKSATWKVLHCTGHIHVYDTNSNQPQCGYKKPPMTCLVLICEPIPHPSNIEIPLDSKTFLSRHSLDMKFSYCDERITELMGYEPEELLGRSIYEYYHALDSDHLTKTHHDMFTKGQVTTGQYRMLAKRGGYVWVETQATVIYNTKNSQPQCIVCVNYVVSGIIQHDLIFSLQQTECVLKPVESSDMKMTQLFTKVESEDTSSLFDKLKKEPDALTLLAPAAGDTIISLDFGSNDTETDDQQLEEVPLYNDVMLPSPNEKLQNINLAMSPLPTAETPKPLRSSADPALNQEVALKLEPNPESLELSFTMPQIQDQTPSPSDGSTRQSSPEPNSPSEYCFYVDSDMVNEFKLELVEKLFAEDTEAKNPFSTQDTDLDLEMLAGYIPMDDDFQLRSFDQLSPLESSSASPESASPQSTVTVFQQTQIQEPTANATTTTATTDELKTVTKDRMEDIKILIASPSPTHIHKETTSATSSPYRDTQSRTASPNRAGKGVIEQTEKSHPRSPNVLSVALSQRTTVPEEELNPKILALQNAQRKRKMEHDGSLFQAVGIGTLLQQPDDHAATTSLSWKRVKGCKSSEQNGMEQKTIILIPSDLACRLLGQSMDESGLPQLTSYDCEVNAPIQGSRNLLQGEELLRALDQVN

Row | Protein | promotion of the HIFα/VHL E3 interaction (anti-HA IP with 786-0/VHL extract) [3] | promotion of VHL E3 capture (negative) [4] | promotion of VHL E3 capture via the C-terminal (P564) site (full length HIF-1α P402A) | also measured
1 | B1 |  |  |  | prolyl 4-hydroxylase activity (hydroxylation-coupled decarboxylation of 2-oxoglutarate) [1]: the HIF polypeptide showed no activity
2 | B2 |  |  |  | prolyl 4-hydroxylase activity (hydroxylation-coupled decarboxylation of 2-oxoglutarate) [1]: the HIF polypeptide showed no activity
3 | B3 |  |  |  | modification of HIF-1 read by HA.VHL-1 capture [2]: had no activity in these assays
4 | B4 |  |  |  | modification of HIF-1 read by HA.VHL-1 capture [2]: had no activity in these assays
5 | B5 | With full length wild-type HIF-1α, striking activity was observed with rat SM-20 and all three human gene products | No activity at all was observed with a double HIF-1α mutant, P402A P564G, that ablates both hydroxylation sites | interaction through the C-terminal site could be promoted by all enzymes | 
6 | B6 | With full length wild-type HIF-1α, striking activity was observed with rat SM-20 and all three human gene products | No activity at all was observed with a double HIF-1α mutant, P402A P564G, that ablates both hydroxylation sites | interaction through the C-terminal site could be promoted by all enzymes | 
7 | B7 | With full length wild-type HIF-1α, striking activity was observed with rat SM-20 and all three human gene products | No activity at all was observed with a double HIF-1α mutant, P402A P564G, that ablates both hydroxylation sites | interaction through the C-terminal site could be promoted by all enzymes | promotion of VHL E3 capture via the N-terminal (P402) site (full length HIF-1α P564G): VHL E3 capture was less efficient when only the N-terminal site (P402) was intact, and was only promoted by EGLN2 (PHD1) and EGLN1(PHD2)
